Results from patent US12072338B2, “Pharmaceutical peptides for the treatment of inflammatory diseases” (PROTAGONISTS LTD., priority 2007, dated 2024).

Legend:
MCP-4 = target: T1, MCP-4 (Homo sapiens, UniProt Q99616); assay: Micro-array analysis of chemokine binding peptides: MCP-4; settings: limit = start of the upper 75% of that peptide's response range
T1 construct: purchased 300-24
Experimental: (§1) (1) Printing: Chemokine (CK) solution (in water) was serially diluted with Print Reagent (GenTel BioSurfaces USA) to final concentrations of 50 μg and 25 μg/ml. BSA/BSA-Biotin control solutions (in water) were diluted with Print Reagent to 100 μg/ml. Amplified stock of M13 phage control (M13KEgIII Cloning Vector, New England Biolabs, Cat.No.E8101S) was stored in Tris Buffered Saline (TBS; pH7.5, 4° C.) and diluted with Print Reagent to the working titre (10^8 pfu/μl). An automated spotting robot (16 pin print tool, 0.4 mm head; BioRobotics, UK) was used to print the CK/BSA control/M13 control, 5 repeats per sample (CK 25 μg/ml and 50 μg/ml; BSA 100 μg/ml; M13 20 μl), on PATH Protein Microarray Slides (GenTel, Prod.No. 2-1005/-1025) at […], and 50-70% relative humidity. Printed micro-array slides were stored at Room Temperature (RT) or 4° C. for at least 24 h before use.
(§2) (2) Blocking: Block Buffer (500 μl/partition; PATHblock, GenTel, Prod.No. 2-1014) was applied to the slide for 1 hour at room temp (RT). After removal of Block Buffer, the slide was air dried for 25 minutes;
(§3) (3) Phage Presented Peptide Binding: Amplified recombinant phage stock was stored in TBS and diluted with Wash Buffer to working titer (10^7 pfu/μl). Recombinant phage suspension (300 μl) was applied per partition and incubated at RT for 1 hour with gentle agitation.
(§4) (4) First Washing: The slides were washed twice with Wash Buffer 300 μl/partition).
(§5) (5) Primary Antibody (Ab) Labeling: The slides were incubated with the Primary Ab (1 mg/ml diluted ×2500 (Wash Reagent), 300 μl; Mouse Anti-M13 monoclonal Ab; Amersham Biosciences, UK; Product Code 27-9420-01) for 45 minutes at RT.
(§6) (6) Second Washing: The slides were washed twice with Wash Buffer (300 μl/partition).
(§7) (7) Secondary Ab Labeling: The slides were incubated with Secondary Ab (1.5 mg/ml diluted ×5000 (Wash Reagent), 300 μl; Cy3-conjugated AffiniPure Goat Anti-Mouse IgG; Jackson ImmunoReserch Labs, USA; Product Code 115-165-062).
(§8) (8) Third Washing: The slides were washed twice with Wash Buffer (300 μl/partition).
(§9) (9) Rinse: the slides were rinsed twice with Rinse Buffer (PATHrinse, GenTel, Prod.No. 2-1018) then dried well.
(§10) (10) Scanning: The peptide-bound, labeled slide was scanned (Laser Intensity 80%, Gain 80%, Resolution 10 μm) with a ScanArray Life Scanner (Packard BioChip Technologies, USA).
(§11) (11) Analysis: Quantitative analysis of micro-array was performed by the SpotReader program of Niles Scientific (USA) and presented as Relative Fluorescence (RF) as a function of CK concentration. Micro-array readout (Cy3 fluorescence) was quantified to determine the relative binding affinities of a CBP for the CKs and by inference, the specificity of the CBP for binding to a CK.

Eotaxin 3 = target: T2, Eotaxin 3 (Homo sapiens, UniProt Q9Y258); assay: Micro-array analysis of chemokine binding peptides: Eotaxin 3
T2 construct: purchased 300-48
T2 sequence (Q9Y258 24-94): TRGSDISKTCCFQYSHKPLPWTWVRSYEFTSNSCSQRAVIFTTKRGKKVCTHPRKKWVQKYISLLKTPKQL
Experimental: as §1, §2, §3, §4, §5, §6, §7, §8, §9, §10, §11

I-TAC = target: T3, I-TAC (Homo sapiens, UniProt O14625); assay: Micro-array analysis of chemokine binding peptides: I-TAC
T3 construct: purchased 300-46
T3 sequence (O14625 22-94): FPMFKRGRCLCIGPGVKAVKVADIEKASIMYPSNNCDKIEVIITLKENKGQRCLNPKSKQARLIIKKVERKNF
Experimental: as §1, §2, §3, §4, §5, §6, §7, §8, §9, §10, §11

I-309 = target: T4, I-309 (Homo sapiens, UniProt P22362); assay: Micro-array analysis of chemokine binding peptides: I-309
T4 construct: purchased 300-37
T4 sequence (P22362 24-96): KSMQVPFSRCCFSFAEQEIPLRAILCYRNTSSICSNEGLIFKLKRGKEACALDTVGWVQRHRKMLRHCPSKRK
Experimental: as §1, §2, §3, §4, §5, §6, §7, §8, §9, §10, §11

IP-10 = target: T5, IP-10 (Homo sapiens, UniProt P02778); assay: Micro-array analysis of chemokine binding peptides: IP-10; settings: limit = start of the upper 75% of that peptide's response range
T5 construct: purchased 300-12
T5 sequence (P02778 22-98): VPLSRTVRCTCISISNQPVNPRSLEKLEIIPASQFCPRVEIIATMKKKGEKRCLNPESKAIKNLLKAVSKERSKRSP
Experimental: as §1, §2, §3, §4, §5, §6, §7, §8, §9, §10, §11

IL-8 = assay: Micro-array analysis of chemokine binding peptides: IL-8
IL-8, sequence (P10145 28-99 limits assumed): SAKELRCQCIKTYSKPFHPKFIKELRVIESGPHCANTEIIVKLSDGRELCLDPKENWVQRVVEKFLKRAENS
Experimental: as §1, §2, §3, §4, §5, §6, §7, §8, §9, §10, §11

Fractalkine = target: T6, Fractalkine (Homo sapiens, UniProt P78423); assay: Micro-array analysis of chemokine binding peptides: Fractalkine
T6 construct: purchased 300-31
T6 sequence (P78423 25-100 limits assumed): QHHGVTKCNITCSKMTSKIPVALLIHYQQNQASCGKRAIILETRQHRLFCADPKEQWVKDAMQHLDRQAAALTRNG
Experimental: as §1, §2, §3, §4, §5, §6, §7, §8, §9, §10, §11

Mig = target: T7, Mig (Homo sapiens, UniProt Q07325); assay: Micro-array analysis of chemokine binding peptides: Mig
T7 construct: purchased 300-26
T7 sequence (Q07325 23-125): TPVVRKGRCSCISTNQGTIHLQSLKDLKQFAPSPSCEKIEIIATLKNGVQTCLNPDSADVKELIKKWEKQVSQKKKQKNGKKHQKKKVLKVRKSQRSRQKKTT
Experimental: as §1, §2, §3, §4, §5, §6, §7, §8, §9, §10, §11

SDF1 = assay: Micro-array analysis of chemokine binding peptides: SDF1 (isoform not given)
SDF1, sequence (P48061 22-89 limits assumed): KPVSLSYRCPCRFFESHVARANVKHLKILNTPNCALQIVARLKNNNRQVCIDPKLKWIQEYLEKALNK
Experimental: as §1, §2, §3, §4, §5, §6, §7, §8, §9, §10, §11

MCP-2 = target: T8, MCP-2 (Homo sapiens, UniProt P80075); assay: Micro-array analysis of chemokine binding peptides: MCP-2
T8 construct: purchased 300-15
T8 sequence (P80075 24-99): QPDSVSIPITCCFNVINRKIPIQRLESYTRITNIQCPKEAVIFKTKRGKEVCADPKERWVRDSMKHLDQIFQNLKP
Experimental: as §1, §2, §3, §4, §5, §6, §7, §8, §9, §10, §11

BCA-1 = target: T9, BCA-1 (Homo sapiens, UniProt O43927); assay: Micro-array analysis of chemokine binding peptides: BCA-1
T9 construct: purchased 300-47
T9 sequence (O43927 23-109): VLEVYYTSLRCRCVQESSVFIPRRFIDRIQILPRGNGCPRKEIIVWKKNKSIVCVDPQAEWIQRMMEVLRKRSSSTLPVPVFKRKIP
Experimental: as §1, §2, §3, §4, §5, §6, §7, §8, §9, §10, §11

Lymphotactin = target: T10, Lymphotactin (Homo sapiens, UniProt P47992); assay: Micro-array analysis of chemokine binding peptides: Lymphotactin
T10 construct: purchased 300-20
T10 sequence (P47992 22-114): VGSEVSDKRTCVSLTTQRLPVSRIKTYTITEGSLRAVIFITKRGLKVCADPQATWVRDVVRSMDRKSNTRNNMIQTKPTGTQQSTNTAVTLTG
Experimental: as §1, §2, §3, §4, §5, §6, §7, §8, §9, §10, §11

Eotaxin = target: T11, Eotaxin (Homo sapiens, UniProt P51671); assay: Micro-array analysis of chemokine binding peptides: Eotaxin
T11 construct: purchased 300-21
T11 sequence (P51671 24-97): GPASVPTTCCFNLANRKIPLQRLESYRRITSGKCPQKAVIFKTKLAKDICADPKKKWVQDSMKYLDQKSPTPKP
Experimental: as §1, §2, §3, §4, §5, §6, §7, §8, §9, §10, §11

TECK = target: T12, TECK (Homo sapiens, UniProt O15444); assay: Micro-array analysis of chemokine binding peptides: TECK
T12 construct: purchased 300-45
T12 sequence (O15444 24-150): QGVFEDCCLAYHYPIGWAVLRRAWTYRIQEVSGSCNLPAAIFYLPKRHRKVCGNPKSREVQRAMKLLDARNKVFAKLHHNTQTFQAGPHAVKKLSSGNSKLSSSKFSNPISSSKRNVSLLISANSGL
Experimental: as §1, §2, §3, §4, §5, §6, §7, §8, §9, §10, §11

MCP-1 = target: T13, MCP-1 (Homo sapiens, UniProt P13500); assay: Micro-array analysis of chemokine binding peptides: MCP-1
T13 construct: purchased 300-04
T13 sequence (P13500 24-99): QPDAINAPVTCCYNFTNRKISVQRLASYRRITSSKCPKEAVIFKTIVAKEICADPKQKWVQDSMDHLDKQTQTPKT
Experimental: as §1, §2, §3, §4, §5, §6, §7, §8, §9, §10, §11

GRO-β = target: T14, GRO-β (Homo sapiens, UniProt P19875); assay: Micro-array analysis of chemokine binding peptides: GRO-β
T14 construct: purchased 300-39
T14 sequence (P19875 35-107): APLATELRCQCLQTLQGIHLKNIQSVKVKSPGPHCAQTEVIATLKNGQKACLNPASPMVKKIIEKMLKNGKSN
Experimental: as §1, §2, §3, §4, §5, §6, §7, §8, §9, §10, §11

Eotaxin 2 = target: T15, Eotaxin 2 (Homo sapiens, UniProt O00175); assay: Micro-array analysis of chemokine binding peptides: Eotaxin 2
T15 construct: purchased 300-33
T15 sequence (O00175 27-119): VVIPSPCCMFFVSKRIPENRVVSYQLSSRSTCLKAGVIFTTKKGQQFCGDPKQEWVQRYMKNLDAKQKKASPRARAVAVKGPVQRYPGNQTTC
Experimental: as §1, §2, §3, §4, §5, §6, §7, §8, §9, §10, §11

RANTES = target: T16, RANTES (Homo sapiens, UniProt P13501); assay: Micro-array analysis of chemokine binding peptides: RANTES; settings: limit = start of the upper 75% of that peptide's response range
T16 construct: purchased 300-06
T16 sequence (P13501 24-91): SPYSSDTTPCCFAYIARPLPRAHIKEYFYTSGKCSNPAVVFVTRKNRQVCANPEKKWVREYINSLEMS
Experimental: as §1, §2, §3, §4, §5, §6, §7, §8, §9, §10, §11

MDC 69 = target: T17, MDC 69 (Homo sapiens, UniProt O00626); assay: Micro-array analysis of chemokine binding peptides: MDC 69
T17 construct: MDC(69aa), (CCL22 cat.no.300-36A); purchased 300-36A
T17 sequence (O00626 25-93): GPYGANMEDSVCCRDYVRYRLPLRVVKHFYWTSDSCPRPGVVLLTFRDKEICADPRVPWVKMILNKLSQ
Experimental: as §1, §2, §3, §4
(5) Primary Antibody (Ab) Labeling: The slides were incubated with the Primary Ab (1 mg/ml diluted ×2500 (Wash Reagent), 300 μl; Mouse Anti-M13 monoclonal Ab; Amersham Biosciences, UK; Product Code 27-9420-01) for 45 minutes at RT. […]
as §11

[1] = limit = start of the upper 75% of that peptide's response range

T1 sequence (Q99616 17-98): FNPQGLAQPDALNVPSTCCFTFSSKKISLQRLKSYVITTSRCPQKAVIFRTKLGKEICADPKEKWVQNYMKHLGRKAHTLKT

WVFG (listed as Homo sapiens) [Ph-p8.4]
binding to MCP-4 with relatively high affinity (Relative Fluorescence Units) (MCP-4): > 15,000 RFU
binding to Eotaxin 3 with relatively high affinity (Relative Fluorescence Units) (Eotaxin 3; [1]): > 15,000 RFU
binding to I-TAC with relatively high affinity (Relative Fluorescence Units) (I-TAC; [1]): > 15,000 RFU
binding to I-309 with relatively high affinity (Relative Fluorescence Units) (I-309; [1]): > 15,000 RFU
binding to IP-10 with relatively high affinity (Relative Fluorescence Units) (IP-10): > 15,000 RFU
binding to IL-8 with relatively high affinity (Relative Fluorescence Units) (IL-8; [1]): > 15,000 RFU
binding to Fractalkine, stated in words (Fractalkine): bound
binding to Mig with relatively high affinity (Relative Fluorescence Units) (Mig; [1]): > 15,000 RFU
binding to SDF1 (isoform not given), stated in words (SDF1): bound
binding to MCP-2 with relatively high affinity (Relative Fluorescence Units) (MCP-2; [1]): > 15,000 RFU
binding to BCA-1, stated in words (BCA-1): bound
binding to Lymphotactin, stated in words (Lymphotactin): bound
binding to Eotaxin with relatively high affinity (Relative Fluorescence Units) (Eotaxin; [1]): > 15,000 RFU
binding to TECK, stated in words (TECK): bound

HHTCSLHFP [Ph-p16]
binding to MCP-4 with relatively high affinity (Relative Fluorescence Units) (MCP-4): > 15,000 RFU
binding to MCP-1, stated in words (MCP-1): bound
binding to Eotaxin 3, stated in words (Eotaxin 3): bound
binding to I-TAC, stated in words (I-TAC): bound
binding to I-309, stated in words (I-309): bound
binding to GRO-β, stated in words (GRO-β): bound
binding to IL-8, stated in words (IL-8): bound
binding to Fractalkine, stated in words (Fractalkine): bound
binding to Mig, stated in words (Mig): bound
binding to Eotaxin 2, stated in words (Eotaxin 2): bound
binding to RANTES with relatively high affinity (Relative Fluorescence Units) (RANTES): > 15,000 RFU
binding to MCP-2, stated in words (MCP-2): bound
binding to BCA-1, stated in words (BCA-1): bound
binding to Lymphotactin, stated in words (Lymphotactin): bound
binding to MDC 69, stated in words (MDC 69): bound
binding to Eotaxin, stated in words (Eotaxin): bound
binding to TECK, stated in words (TECK): bound
